Assay [1] concerns the target SIRPB1-His iso. 3 (human) (UniProt Q5TFQ8). Briefly: ELISA, plate coated with SIRP protein.
A further assay deals with SIRPB1-Fc iso. 3 (human) (UniProt Q5TFQ8). Briefly: ELISA, plate coated with SIRP protein.
For assay [2], the target named is SIRPA v2 (CAA71403.1) (human) (UniProt P78324). In words: ELISA, plate coated with SIRP protein.
Assay [3] concerns the target T1, human SIRPA on human macrophages (primary monocyte-derived macrophages; U937 line) (human), P78324.
Assay [4] deals with huSIPRA v.1 CAA71403.1 (human) (UniProt P78324). Briefly: ELISA, plate coated with tagged SIRPA at 1 ug/mL.
Assay [5] concerns the target T1, human SIRPA on human macrophages …. Briefly: cell-based or functional assay.
Assay [6] addresses human SIRPA on human macrophages (primary monocyte-derived macrophages; U937 line) (human) (UniProt P78324). Briefly: cell-based or functional assay.

T1 sequence (P78324 31-504): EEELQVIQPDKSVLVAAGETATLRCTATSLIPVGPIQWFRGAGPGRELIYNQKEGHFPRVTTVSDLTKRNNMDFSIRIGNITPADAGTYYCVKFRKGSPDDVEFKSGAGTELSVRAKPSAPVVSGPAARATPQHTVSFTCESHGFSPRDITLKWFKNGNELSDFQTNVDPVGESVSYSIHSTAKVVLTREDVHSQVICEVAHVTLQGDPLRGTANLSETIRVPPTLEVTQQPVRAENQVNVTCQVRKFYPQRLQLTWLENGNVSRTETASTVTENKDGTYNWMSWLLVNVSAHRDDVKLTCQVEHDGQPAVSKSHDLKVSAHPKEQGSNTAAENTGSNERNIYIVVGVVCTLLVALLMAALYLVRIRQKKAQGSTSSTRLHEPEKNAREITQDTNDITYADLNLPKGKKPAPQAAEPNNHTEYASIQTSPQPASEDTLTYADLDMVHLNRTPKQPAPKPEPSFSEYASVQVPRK
human SIRPA on human macrophages (primary monocyte-derived macrophages; U937 line) (human), sequence (P78324 31-504): as above
SIRPB1-His iso. 3 (human), sequence (Q5TFQ8 30-371): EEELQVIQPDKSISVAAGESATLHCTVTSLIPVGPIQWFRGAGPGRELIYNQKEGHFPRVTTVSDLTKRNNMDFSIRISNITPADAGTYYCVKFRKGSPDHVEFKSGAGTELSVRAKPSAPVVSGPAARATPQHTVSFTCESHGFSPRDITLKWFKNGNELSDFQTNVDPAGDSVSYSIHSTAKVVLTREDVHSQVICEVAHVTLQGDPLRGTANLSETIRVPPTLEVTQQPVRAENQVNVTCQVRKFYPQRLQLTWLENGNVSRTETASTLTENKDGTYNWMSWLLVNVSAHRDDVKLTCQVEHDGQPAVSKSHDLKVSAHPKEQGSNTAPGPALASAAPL
SIRPB1-Fc iso. 3 (human), sequence (Q5TFQ8 30-371): as above

B1: anti-SIRPA antibody 9C2 (antibody, V domains shown)
VH: EFQLQQSGAELVKPGASVKISCKASGYSLTGYNMNWVKQSRGKSLEWIGNINPHYGSSTYNQNFKDKATLTVDKSSSAAYMQFNSLTSEDSAVYYCAREGYDGVFDYWGQGTTLTVSS
VL: QIVLSQSPAILSASPGEKVTMTCRASSSVSYMHWYQQKPGSSPKPWIYVTSNLASGVPTRFSGSGSGTSYSLTISRVEAEDAATYYCQQWSSNPRTFGGGTKLEIK
As to B1, the EC50 in assay [1] came to 0.425 nM; with SIRPB1-Fc iso. 3 (human), 0.382 nM; in assay [2] it was 0.358 nM.

B2: mouse anti-SIRPA antibody m3F9 (antibody, mouse IgG1, V domains shown)
VH: EVKLVESGGGLVKPGGSLKLSCAASGFTFSSYAMSWVRQTPEKRLEWVATISDYGGSYTYYPDSVKGRFTISRDNAKYTLYLQMSSLRSEDTALYYCARPPYDDYYGGFAYWGQGTLVTVSA
VL: DIVLTQSPASLAVSLGQRATISCRASKSVSSSGYSYMHWYQQKPGQPPKLLIYLASNLESGVPARFSGSGSGTDFTLNIHPVEEEDAATYYCQHNRELPCTFGGGTKLEIK
Turning to B2, the IC50 (read off the curve), SIRPA downregulation on primary human macrophages, Dnr. 414 in assay [3] was 0.04 nM. Besides, in assay [4], the EC50 came out at 0.789 nM. In addition, in assay [5], the Phagocytosis, fold increase over baseline activity came to 1.51 fold; the SIRPA IC50 (nM), downregulation on U937 cells is 0.105 nM; the SIRPA IC50 (nM), downregulation on human primary macrophages is 0.00905 nM; the SIRPA Max % DR, U937 cells worked out at 75%. In assay [5], this molecule registered an SIRPA Max % DR, human primary macrophages of 89%; an SIRPA downregulation on primary human macrophages, Donor 413 (flow cytometry) of 90%; an SIRPA downregulation on primary human macrophages, Donor 414 (flow cytometry) of 85%. In addition, the EC50 in assay [1] amounted to 0.435 nM. Besides, the EC50 with SIRPB1-Fc iso. 3 (human) came out at 0.319 nM. In addition, the EC50 in assay [2] is 0.353 nM.

B3: deglycosylated m3F9 anti-SIRPA antibody (antibody, mouse IgG1, V domains shown)
VH: EVKLVESGGGLVKPGGSLKLSCAASGFTFSSYAMSWVRQTPEKRLEWVATISDYGGSYTYYPDSVKGRFTISRDNAKYTLYLQMSSLRSEDTALYYCARPPYDDYYGGFAYWGQGTLVTVSA
VL: DIVLTQSPASLAVSLGQRATISCRASKSVSSSGYSYMHWYQQKPGQPPKLLIYLASNLESGVPARFSGSGSGTDFTLNIHPVEEEDAATYYCQHNRELPCTFGGGTKLEIK
modifications: here or on the partner: Fc glycan on Asn297 removed enzymatically with EndoS
In turn, B3 showed an IC50 (read off the curve), SIRPA downregulation on primary human macrophages, Dnr. 413 in assay [3] of 0.07 nM. In assay [5], this molecule had an SIRPA downregulation on primary human macrophages, Donor 413 (flow cytometry) of 70% and an SIRPA downregulation on primary human macrophages, Donor 414 (flow cytometry) of 75%.

B4: chimeric anti-SIRPA antibody 3F9 huIgG1 (antibody, V domains shown)
VH: EVKLVESGGGLVKPGGSLKLSCAASGFTFSSYAMSWVRQTPEKRLEWVATISDYGGSYTYYPDSVKGRFTISRDNAKYTLYLQMSSLRSEDTALYYCARPPYDDYYGGFAYWGQGTLVTVSA
VL: DIVLTQSPASLAVSLGQRATISCRASKSVSSSGYSYMHWYQQKPGQPPKLLIYLASNLESGVPARFSGSGSGTDFTLNIHPVEEEDAATYYCQHNRELPCTFGGGTKLEIK
In assay [5], B4 came in with a Phagocytosis, fold increase over baseline activity of 1.77 fold; an SIRPA IC50 (nM), downregulation on U937 cells of 0.804 nM; an SIRPA IC50 (nM), downregulation on human primary macrophages of 0.172 nM; an SIRPA Max % DR, U937 cells of 68%. For the same molecule, the SIRPA Max % DR, human primary macrophages in assay [5] turned out to be 90%.

B5: anti-SIRPA antibody 18D5 (antibody, from another filing, V domains shown)
VH: QVQLQQPGAELVRPGSSVKLSCKASGYTFTSYWVHWVKQRPIQGLEWIGNIDPSDSDTHYNQKFKDKASLTVDKSSSTAYMQLSSLTFEDSAVYYCVRGGTGTMAWFAYWGQGTLVTVSA
VL: DVVMTQTPLSLPVSLGDQASISCRSSQSLVHSYGNTYLYWYLQKPGQSPKLLIYRVSNRFSGVPDRFSGSGSGTDFTLKISRVEAEDLGVYFCFQGTHVPYTFGSGTKLEIKR
In assay [6], B5 showed an EC50 (nM), phagocytosis of A375 cells by primary human macrophages of 2.15 nM and a Max, fold increase in phagocytosis over baseline activity of 1.06 fold.

(Values after patent US20240301071A1.)
